Results from patent US20090202520A1 (PROMEDIOR, published 2009).

B1: soluble recombinant FcγRIIA (H131 variant) (receptor)
chain: QAAPPKAVLKLEPPWINVLQEDSVTLTCQGARSPESDSIQWFHNGNLIPTHTQPSYRFKANNNDSGEYTCQTGQTSLSDPVHLTVLSEWLVLQTPHLEFQEGETIMLRCHSWKDKPLVKVTFFQNGKSQKFSHLDPTFSIPQANHSHSGDYHCTGNIGYTLFSSKPVTITVQVPSMGSSSPMG
notes: also called FcγR2A; not shown: C-terminal poly-histidine tail of 6-10 histidines
B2: C-reactive protein (CRP) (ligand, human, UniProt P02741 19-224, looked up)
chain: QTDMSRKAFVFPKESDTSYVSLKAPLTKPLKAFTVCLHFYTELSSTRGYSIFSYATKRQDNEILIFWSKDIGYSFTVGGSEILFEVPEVTVAPVHICTSWESASGIVEFWVDGKPRVRKSLKKGYTVGAEASIILGQEQDSFGGNFEGSQSLVGDIGNVNMWDFVLSPDEINTIYLGGPFSPNVLNWRALKYEVQGEVFTKPQLWP
notes: In the SPR assay CRP was captured on PC-KLH immobilised on a CM5 chip; also called hCRP; PTX1
B3: soluble recombinant FcγRIIB (receptor, UniProt P31994 43-217, looked up)
chain: TPAAPPKAVLKLEPQWINVLQEDSVTLTCRGTHSPESDSIQWFHNGNLIPTHTQPSYRFKANNNDSGEYTCQTGQTSLSDPVHLTVLSEWLVLQTPHLEFQEGETIVLRCHSWKDKPLVKVTFFQNGKSKKFSRSDPNFSIPQANHSHSGDYHCTGNIGYTLYSSKPVTITVQAP
notes: extracellular domain; not shown: C-terminal poly-histidine tail of 6-10 histidines
B4: soluble recombinant FcγRIIIB (sFcγRIIIB) (receptor, UniProt O75015 17-200, looked up)
chain: GMRTEDLPKAVVFLEPQWYSVLEKDSVTLKCQGAYSPEDNSTQWFHNENLISSQASSYFIDAATVNDSGEYRCQTNLSTLSDPVQLEVHIGWLLLQAPRWVFKEEDPIHLRCHSWKNTALHKVTYLQNGKDRKYFHHNSDFHIPKATLKDSGSYFCRGLVGSKNVSSETVNITITQGLAVSTIS
notes: as for B3

Experiments:
serum amyloid P (SAP) [1] = target: T1, serum amyloid P (SAP) (human, UniProt P02743 20-223); assay: SPR (Biacore X100), SAP on CM5 chip, soluble receptor flowed, single cycle kinetics, KD = Kd/Ka
T1 construct: Pentamer of five non-covalently associated protomers; also called hSAP; human serum amyloid protein P
Text: (§1) Surface plasmon resonance technology detects and quantifies binding and dissociation events between two proteins through a change in mass at the surface of a chip that is detected as a change in surface plasmon resonance. For these studies we used a Biacore X100 instrument.
(§2) SAP was bound to the surface of the test flow cell of a chip and a soluble recombinant form of Fcγ receptor (sFcγR) was flowed across the surface of the chip, representing the contact or binding phase. Buffer was then flowed across the chip surface, representing the dissociation phase. Change in mass at the cell surface with respect to time, detected as a change in surface plasmon resonance units (RUs) with time, was represented by a graph called a sensorgram. Binding of SAP to the CM5 dextran surface of a Biacore CM5 chip was performed in the presence of 10 mM Hepes, 150 mM NaCl, 0.5 mM CaCl₂, pH 7.4 as running buffer. Binding of SAP was stabilized by a very short immobilization using amine coupling (Biacore reagents) which covalently linked a limited representation of amine-group-containing amino acids on SAP to groups on the chip surface activated with 1-ethyl-3-(3-dimethylaminopropyl)carbodiimide and N-hydroxysuccinimide. A negative control flow cell was prepared using the same amine coupling procedure to immobilize human serum albumin to the same level as SAP. […]

[2] = target: T2, soluble recombinant FcγRI (sFcγRI) (UniProt P12314 16-292); assay: SPR steady-state plot of Req against FcγRI concentration (early association phase data); CRP captured via PC-KLH on CM5 chip; vertical line marks the KD estimate
T2 construct: extracellular domain; also called FcγR1; not shown: C-terminal poly-histidine tail of 6-10 histidines
Procedure: (§3) Similar methods were used to evaluate binding interactions between CRP and sFcγRs, and details were the same except where stated here. Binding of CRP to Biacore CM5 chips was achieved through capture via PC-KLH (phosphocholine-keyhole limpet hemocyanin conjugate). Briefly, PC-KLH was immobilized onto a CM5 chip through amine coupling onto the chip surface activated with 1-ethyl-3-(3-dimethylaminopropyl)carbodiimide and N-hydroxysuccinimide. A negative control flow cell was prepared using the same amine coupling to immobilize human serum albumin to the same level as the PC-KLH. Binding of CRP to the PC moiety of PC-KLH immobilized on the CM5 chip was achieved by contacting the surface of the CM5 chip with the CRP in 10 mM Hepes, 150 mM NaCl, 0.5 mM CaCl₂, pH 7.4, to achieve the desired amount of bound CRP. We established that binding was specific for the PC moiety in PC-KLH, since no binding to KLH immobilized to the same level was evident when this was attempted on a different flow cell using the same conditions and the same 10 mM Hepes, 150 mM NaCl, 0.5 mM CaCl₂, pH 7.4, as running buffer. Binding of CRP to PC-KLH was stabilized by a very short immobilization using amine coupling. […]

serum amyloid P (SAP) [3] = target: T1, serum amyloid P (SAP); assay: SPR (Biacore X100), SAP on CM5 chip, soluble receptor flowed
Text: as §1, §2

C-reactive protein (CRP) = target: B2; assay: SPR steady-state plot of Req against FcγRIIIB concentration (early association phase data); CRP captured via PC-KLH on CM5 chip; dotted vertical line marks the KD estimate, beyond the highest concentration tested (3e-6 M)
Procedure: as §3

T1 sequence (P02743 20-223): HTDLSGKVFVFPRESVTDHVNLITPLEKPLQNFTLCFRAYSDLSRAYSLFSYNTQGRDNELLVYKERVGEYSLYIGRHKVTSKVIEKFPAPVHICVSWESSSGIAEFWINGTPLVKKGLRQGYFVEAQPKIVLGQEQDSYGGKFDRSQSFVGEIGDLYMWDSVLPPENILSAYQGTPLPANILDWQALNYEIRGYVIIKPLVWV
T2 sequence (P12314 16-292): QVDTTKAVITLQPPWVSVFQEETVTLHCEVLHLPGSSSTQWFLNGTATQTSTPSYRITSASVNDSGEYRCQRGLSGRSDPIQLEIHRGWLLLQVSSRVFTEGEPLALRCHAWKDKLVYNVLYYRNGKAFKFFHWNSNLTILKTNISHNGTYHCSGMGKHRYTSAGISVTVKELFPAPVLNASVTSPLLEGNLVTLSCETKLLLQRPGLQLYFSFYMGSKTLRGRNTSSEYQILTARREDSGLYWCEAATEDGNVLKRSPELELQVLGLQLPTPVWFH

Binder: B1
Kd (serum amyloid P (SAP) [1]): 0.17 nM

Binder: B2
Kd [2]: ~1450 nM

Binder: B3
binding result (serum amyloid P (SAP) [3]): no binding

Binder: B4
Kd (C-reactive protein (CRP)): ~15600 nM
